Values of other authors as cited in article PMC9255719.
Several values for one entry are separate records, joined by “and”; a condition that tells them apart may be missing. Equal entries are not always repeated. Where two headings read alike, the source gives them in different places. Blank lines part the entries; values can stand above or below the substance they belong to.

How the values were obtained:
[1] = target: Albumin-Texas Red-X conjugate (4:1) (UniProt P02770); test: not stated in this review (data reproduced from ref [155]); settings: pH 6; not stated (pH 6 and pH 7.4)
[2] = target: Albumin-fluorescein conjugate (6.4:1) (UniProt P02770); test: as above; settings: not stated (pH 6 and pH 7.4)
[3] = target: Albumin-Texas Red-X conjugate (2:1) (UniProt P02770); test: as above; settings: pH 6; not stated (pH 6 and pH 7.4)
[4] = target: Albumin-Alexa 568 conjugate (4:1) (UniProt P02770); test: as above; settings: pH 6; not stated (pH 6 and pH 7.4)
[5] = target: Albumin-Texas Red-X conjugate (1:1) (UniProt P02770); test: as above; settings: pH 6; not stated (pH 6 and pH 7.4)
[6] = target: Serum albumin, unlabelled ('No dye') (UniProt P02770); test: as above; settings: not stated (pH 6 and pH 7.4)
[7] = target: Albumin-Alexa 647 maleimide conjugate (1:1) (UniProt P02770); test: as above; settings: pH 6; not stated (pH 6 and pH 7.4)
[8] = target: Albumin-CF-594 maleimide conjugate (dye:albumin 1:3) (UniProt P02770); test: as above; settings: pH 6; not stated (pH 6 and pH 7.4)
[9] = target: Albumin-Texas Red-X conjugate (5:1) (UniProt P02770); test: as above; settings: pH 6; not stated (pH 6 and pH 7.4)
[10] = target: Albumin-Texas Red conjugate (1:1) (UniProt P02770); test: as above; settings: not stated (pH 6 and pH 7.4)
cubilin = cubilin (UniProt O60494)
Sequence of UniProt O60494 (O60494 36-3623): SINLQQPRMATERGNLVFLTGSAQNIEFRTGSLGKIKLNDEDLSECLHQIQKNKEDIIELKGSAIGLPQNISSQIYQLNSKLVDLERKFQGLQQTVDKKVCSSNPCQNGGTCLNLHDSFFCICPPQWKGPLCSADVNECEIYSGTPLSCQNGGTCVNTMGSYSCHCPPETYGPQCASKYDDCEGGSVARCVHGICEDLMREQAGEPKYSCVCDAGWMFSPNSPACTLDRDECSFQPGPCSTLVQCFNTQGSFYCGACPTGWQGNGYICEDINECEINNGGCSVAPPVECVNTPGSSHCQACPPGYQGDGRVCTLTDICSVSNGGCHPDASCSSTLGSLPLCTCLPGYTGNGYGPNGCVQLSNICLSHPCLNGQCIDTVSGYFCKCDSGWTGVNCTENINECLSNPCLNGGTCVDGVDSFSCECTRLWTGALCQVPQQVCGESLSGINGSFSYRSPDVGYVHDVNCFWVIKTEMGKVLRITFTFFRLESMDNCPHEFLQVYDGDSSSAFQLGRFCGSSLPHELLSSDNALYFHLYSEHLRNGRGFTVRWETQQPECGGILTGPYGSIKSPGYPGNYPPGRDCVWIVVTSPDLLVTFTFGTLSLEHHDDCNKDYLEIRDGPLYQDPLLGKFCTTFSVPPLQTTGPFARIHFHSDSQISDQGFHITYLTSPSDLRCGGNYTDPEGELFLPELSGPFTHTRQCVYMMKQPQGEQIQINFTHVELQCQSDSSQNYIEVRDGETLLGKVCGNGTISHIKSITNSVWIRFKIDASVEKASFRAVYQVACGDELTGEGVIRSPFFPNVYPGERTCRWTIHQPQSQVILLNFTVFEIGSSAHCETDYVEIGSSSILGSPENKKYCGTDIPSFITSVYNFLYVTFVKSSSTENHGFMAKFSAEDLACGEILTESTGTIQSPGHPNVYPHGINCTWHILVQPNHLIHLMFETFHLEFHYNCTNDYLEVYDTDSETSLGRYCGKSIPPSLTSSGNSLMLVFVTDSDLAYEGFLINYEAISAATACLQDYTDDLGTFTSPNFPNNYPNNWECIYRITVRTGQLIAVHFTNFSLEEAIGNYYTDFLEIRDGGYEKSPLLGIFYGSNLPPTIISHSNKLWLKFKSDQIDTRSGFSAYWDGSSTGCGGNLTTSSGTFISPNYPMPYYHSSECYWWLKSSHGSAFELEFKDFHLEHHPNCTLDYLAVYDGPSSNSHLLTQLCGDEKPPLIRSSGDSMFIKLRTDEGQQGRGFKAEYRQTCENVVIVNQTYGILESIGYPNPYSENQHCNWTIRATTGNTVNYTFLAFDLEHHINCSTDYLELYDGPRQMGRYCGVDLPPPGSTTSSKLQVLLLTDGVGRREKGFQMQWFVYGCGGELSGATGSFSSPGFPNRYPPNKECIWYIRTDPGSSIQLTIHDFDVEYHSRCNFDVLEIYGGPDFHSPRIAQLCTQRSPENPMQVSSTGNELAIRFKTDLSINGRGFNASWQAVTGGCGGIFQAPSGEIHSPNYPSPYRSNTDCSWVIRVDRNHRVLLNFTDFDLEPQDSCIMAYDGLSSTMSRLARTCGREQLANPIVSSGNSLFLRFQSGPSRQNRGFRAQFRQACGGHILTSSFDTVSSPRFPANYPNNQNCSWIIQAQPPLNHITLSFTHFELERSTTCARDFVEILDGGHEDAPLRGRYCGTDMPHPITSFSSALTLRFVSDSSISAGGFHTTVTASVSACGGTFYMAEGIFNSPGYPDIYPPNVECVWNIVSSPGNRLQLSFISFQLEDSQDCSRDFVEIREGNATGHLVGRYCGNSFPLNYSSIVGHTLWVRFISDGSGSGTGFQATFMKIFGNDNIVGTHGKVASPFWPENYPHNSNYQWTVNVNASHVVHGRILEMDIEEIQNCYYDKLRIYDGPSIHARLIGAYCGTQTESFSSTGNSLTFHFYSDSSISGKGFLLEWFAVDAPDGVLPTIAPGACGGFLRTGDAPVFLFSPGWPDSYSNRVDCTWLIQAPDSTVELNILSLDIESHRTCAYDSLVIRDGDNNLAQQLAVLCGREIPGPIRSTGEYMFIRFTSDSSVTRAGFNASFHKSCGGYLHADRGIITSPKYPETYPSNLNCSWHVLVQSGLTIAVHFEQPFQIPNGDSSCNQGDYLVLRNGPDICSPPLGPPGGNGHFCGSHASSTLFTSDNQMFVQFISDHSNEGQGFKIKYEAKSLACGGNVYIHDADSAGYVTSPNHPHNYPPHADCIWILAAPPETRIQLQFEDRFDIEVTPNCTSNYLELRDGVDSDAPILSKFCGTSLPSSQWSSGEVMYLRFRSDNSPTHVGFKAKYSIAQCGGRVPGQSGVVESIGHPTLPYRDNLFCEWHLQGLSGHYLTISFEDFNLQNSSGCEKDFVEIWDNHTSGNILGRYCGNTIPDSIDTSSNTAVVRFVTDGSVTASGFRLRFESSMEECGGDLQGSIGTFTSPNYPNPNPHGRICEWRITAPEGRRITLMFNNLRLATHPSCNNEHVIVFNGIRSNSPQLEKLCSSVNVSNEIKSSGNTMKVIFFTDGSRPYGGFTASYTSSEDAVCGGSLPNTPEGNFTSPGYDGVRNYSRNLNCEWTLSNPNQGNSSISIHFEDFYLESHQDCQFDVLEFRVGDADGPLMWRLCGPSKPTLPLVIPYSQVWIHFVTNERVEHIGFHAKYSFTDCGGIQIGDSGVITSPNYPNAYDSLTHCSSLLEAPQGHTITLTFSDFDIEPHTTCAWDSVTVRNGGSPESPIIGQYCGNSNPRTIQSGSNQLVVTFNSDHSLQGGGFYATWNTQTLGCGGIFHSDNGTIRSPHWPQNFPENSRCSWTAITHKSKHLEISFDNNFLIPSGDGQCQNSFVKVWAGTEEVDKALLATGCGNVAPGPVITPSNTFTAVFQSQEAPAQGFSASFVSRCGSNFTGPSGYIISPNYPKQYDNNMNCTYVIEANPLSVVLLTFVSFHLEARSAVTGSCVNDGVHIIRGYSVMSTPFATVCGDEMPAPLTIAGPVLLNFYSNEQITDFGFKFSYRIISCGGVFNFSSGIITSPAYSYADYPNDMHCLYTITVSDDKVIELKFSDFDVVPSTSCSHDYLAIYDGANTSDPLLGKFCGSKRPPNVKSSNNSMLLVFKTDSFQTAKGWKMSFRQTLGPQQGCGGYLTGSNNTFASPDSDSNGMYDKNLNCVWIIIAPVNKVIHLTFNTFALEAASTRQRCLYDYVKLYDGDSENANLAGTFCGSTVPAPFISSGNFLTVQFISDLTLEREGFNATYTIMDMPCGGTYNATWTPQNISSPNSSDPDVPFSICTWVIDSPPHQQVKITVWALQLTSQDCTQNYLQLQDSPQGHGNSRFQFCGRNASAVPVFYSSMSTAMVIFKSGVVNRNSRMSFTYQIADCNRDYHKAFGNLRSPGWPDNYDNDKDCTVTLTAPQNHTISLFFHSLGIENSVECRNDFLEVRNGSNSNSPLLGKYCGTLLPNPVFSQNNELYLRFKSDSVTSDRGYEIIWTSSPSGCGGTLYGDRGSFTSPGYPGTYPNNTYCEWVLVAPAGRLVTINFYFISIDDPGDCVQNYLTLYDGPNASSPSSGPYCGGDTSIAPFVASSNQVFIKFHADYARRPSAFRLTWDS

FcRn (Rattus norvegicus) [11] = target: FcRn (Rattus norvegicus) (UniProt P13599)
Sequence of UniProt P13599 (P13599 23-298): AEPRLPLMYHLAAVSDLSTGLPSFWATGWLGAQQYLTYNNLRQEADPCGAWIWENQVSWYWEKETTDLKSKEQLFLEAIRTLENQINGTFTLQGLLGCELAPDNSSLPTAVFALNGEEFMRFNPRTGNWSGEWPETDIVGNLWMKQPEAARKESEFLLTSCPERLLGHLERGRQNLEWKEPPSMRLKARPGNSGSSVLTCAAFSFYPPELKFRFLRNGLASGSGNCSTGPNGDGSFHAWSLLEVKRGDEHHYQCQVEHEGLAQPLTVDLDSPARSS

FcRn (Rattus norvegicus) [12] = target: FcRn (Rattus norvegicus) (UniProt P13599); remark: listed apart in the source
FcRn (Rattus norvegicus) [13] = target: FcRn (Rattus norvegicus) (UniProt P13599); remark: listed apart in the source
FcRn (Rattus norvegicus) [14] = target: FcRn (Rattus norvegicus) (UniProt P13599); remark: listed apart in the source
FcRn (Rattus norvegicus) [15] = target: FcRn (Rattus norvegicus) (UniProt P13599); remark: listed apart in the source
FcRn (Rattus norvegicus) [16] = target: FcRn (Rattus norvegicus) (UniProt P13599); remark: listed apart in the source
FcRn (Rattus norvegicus) [17] = target: FcRn (Rattus norvegicus) (UniProt P13599); remark: listed apart in the source
FcRn (Rattus norvegicus) [18] = target: FcRn (Rattus norvegicus) (UniProt P13599); remark: listed apart in the source
FcRn (Homo sapiens) [19] = target: FcRn (Homo sapiens) (UniProt P55899)
Sequence of UniProt P55899 (P55899 24-297): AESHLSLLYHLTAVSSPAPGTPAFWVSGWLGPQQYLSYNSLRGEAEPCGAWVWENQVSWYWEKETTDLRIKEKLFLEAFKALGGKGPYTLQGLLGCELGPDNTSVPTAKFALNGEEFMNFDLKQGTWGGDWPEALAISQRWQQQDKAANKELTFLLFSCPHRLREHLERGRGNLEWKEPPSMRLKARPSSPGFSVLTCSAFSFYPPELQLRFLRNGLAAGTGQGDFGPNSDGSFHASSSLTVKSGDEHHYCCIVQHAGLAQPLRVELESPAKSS

FcRn (Rattus norvegicus) [20] = target: FcRn (Rattus norvegicus) (UniProt P13599); remark: listed apart in the source
FcRn (Rattus norvegicus) [21] = target: FcRn (Rattus norvegicus) (UniProt P13599); remark: listed apart in the source
FcRn (Rattus norvegicus) [22] = target: FcRn (Rattus norvegicus) (UniProt P13599); remark: listed apart in the source
FcRn (Rattus norvegicus) [23] = target: FcRn (Rattus norvegicus) (UniProt P13599); remark: listed apart in the source
FcRn (Homo sapiens) [24] = target: FcRn (Homo sapiens) (UniProt P55899); remark: listed apart in the source
FcRn (Rattus norvegicus) [25] = target: FcRn (Rattus norvegicus) (UniProt P13599); remark: listed apart in the source
FcRn (Rattus norvegicus) [26] = target: FcRn (Rattus norvegicus) (UniProt P13599); remark: listed apart in the source

Kd [1]: > 40 µM
Kd ([2]; pH 6): 69 µM
Kd ([2]; pH 7.4): 1 µM
Kd [3]: 10 µM
Kd [4]: 17 µM
Kd [5]: 5.4 µM
Kd ([6]; pH 6): 11.6 µM
Kd ([6]; pH 7.4): > 100 µM
Kd [7]: 11 µM
Kd [8]: 1.5 µM
Kd [9]: > 100 µM
Kd ([10]; pH 6): 6 µM
Kd ([10]; pH 7.4): 11 µM
Substance: Neonatal Fc receptor (FcRn), rat (rFcRn)

Kd (cubilin): 0.63 µM
Kd (FcRn (Rattus norvegicus) [11]): > 100 µM
Substance: albumin (from UniProt P02768)

Kd (FcRn (Rattus norvegicus) [12]): > 100 µM
Substance: albumin (from UniProt P02769)

More lines, now with the values behind:

Substance: albumin (from UniProt P02770)
Kd (FcRn (Rattus norvegicus) [13]): 1.5 µM
Kd (FcRn (Rattus norvegicus) [14]): 17 µM
Kd (FcRn (Rattus norvegicus) [15]): 10 µM
Kd (FcRn (Rattus norvegicus) [16]): > 40 µM
Kd (FcRn (Rattus norvegicus) [17]): 11.6 µM
Kd (FcRn (Rattus norvegicus) [18]): 5.4 µM
Kd (FcRn (Homo sapiens) [19]): 1.1 µM
Kd (FcRn (Rattus norvegicus) [20]): > 100 µM
Kd (FcRn (Rattus norvegicus) [21]): 11 µM and 6 µM

Substance: albumin (from UniProt P07724)
Kd (FcRn (Rattus norvegicus) [22]): > 100 µM

Substance: albumin (from UniProt P08835)
Kd (FcRn (Rattus norvegicus) [23]): > 100 µM
Kd (FcRn (Homo sapiens) [24]): > 50 µM

Substance: albumin (from UniProt P14639)
Kd (FcRn (Rattus norvegicus) [25]): > 100 µM

Substance: albumin (from UniProt P49065)
Kd (FcRn (Rattus norvegicus) [26]): 11.8 µM
